Legend:
[1] = molecular target: type I-F CRISPR-Cas surveillance complex (the Csy complex) from Pseudomonas aeruginosa PA14 (Pseudomonas aeruginosa) (UniProt Q02ML9); assay: cryo-EM structure; Csy incubated with AcrIF protein at molar ratio 1:10 for 1 h on ice, SEC in 20 mM HEPES pH 7.5, 100 mM KCl, 5% glycerol, 1 mM TCEP; 0.5 mg/ml on UltrAuFoil grids, Titan Krios 300 kV
[2] = molecular target: the molecule itself; assay: as above

type I-F CRISPR-Cas surveillance complex (the Csy complex) from Pseudomonas aeruginosa PA14 (Pseudomonas aeruginosa), sequence (Q02ML9 whole entry, chain 1 of 3): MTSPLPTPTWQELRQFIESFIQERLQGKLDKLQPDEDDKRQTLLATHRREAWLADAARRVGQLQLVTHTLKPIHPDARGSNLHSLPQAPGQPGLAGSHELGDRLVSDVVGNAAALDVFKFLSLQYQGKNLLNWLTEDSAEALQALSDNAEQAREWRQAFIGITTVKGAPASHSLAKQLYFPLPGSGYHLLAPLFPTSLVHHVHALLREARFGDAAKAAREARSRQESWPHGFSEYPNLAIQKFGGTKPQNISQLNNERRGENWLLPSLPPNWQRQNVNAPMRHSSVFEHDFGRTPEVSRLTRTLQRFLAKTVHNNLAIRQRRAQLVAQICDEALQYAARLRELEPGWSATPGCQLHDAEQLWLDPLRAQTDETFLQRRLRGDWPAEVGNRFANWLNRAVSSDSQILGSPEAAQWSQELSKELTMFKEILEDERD
type I-F CRISPR-Cas surveillance complex (the Csy complex) from Pseudomonas aeruginosa PA14 (Pseudomonas aeruginosa), sequence (Q02MM0 whole entry, chain 2 of 3, further chain): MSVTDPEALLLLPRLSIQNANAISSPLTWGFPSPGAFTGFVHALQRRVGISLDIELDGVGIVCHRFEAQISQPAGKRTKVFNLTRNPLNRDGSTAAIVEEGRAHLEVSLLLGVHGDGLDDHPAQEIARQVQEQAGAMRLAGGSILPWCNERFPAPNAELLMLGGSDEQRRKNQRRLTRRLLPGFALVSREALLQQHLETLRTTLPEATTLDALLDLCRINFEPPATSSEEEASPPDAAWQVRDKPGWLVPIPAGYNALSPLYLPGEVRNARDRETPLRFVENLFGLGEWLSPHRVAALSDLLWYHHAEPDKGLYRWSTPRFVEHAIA
type I-F CRISPR-Cas surveillance complex (the Csy complex) from Pseudomonas aeruginosa PA14 (Pseudomonas aeruginosa), sequence (Q02MM2 whole entry, chain 4 of 3, further chain): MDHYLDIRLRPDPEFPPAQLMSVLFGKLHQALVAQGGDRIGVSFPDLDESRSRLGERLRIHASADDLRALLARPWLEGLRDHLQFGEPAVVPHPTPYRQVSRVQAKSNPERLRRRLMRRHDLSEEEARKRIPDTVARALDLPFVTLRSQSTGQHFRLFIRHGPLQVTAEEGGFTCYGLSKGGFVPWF

Molecule	stoichiometry N [1]	stoichiometry N [2]
AcrIF14 (natural protein)	2	–
Cas7f subunit of the Csy complex (natural protein, Pseudomonas aeruginosa, Cas7f (Csy3) of Pseudomonas aeruginosa PA14; Stood in the assay as a subunit (six copies) of the whole Csy complex; It may carry the His tag of the complex (surmise); also called Cas7.1f-Cas7.6f; Cas7.4f; source: E. coli BL21 (DE3), co-expressed and purified as part of the Csy complex (HisTrap HP, HiTrap Q, Superdex 200)) MSKPILSTASVLAFERKLDPSDALMSAGAWAQRDASQEWPAVTVREKSVRGTISNRLKTKDRDPAKLDASIQSPNLQTVDVANLPSDADTLKVRFTLRVLGGAGTPSACNDAAYRDKLLQTVATYVNDQGFAELARRYAHNLANARFLWRNRVGAEAVEVRINHIRQGEVARAWRFDALAIGLRDFKADAELDALAELIASGLSGSGHVLLEVVAFARIGDGQEVFPSQELILDKGDKKGQKSKTLYSVRDAAAIHSQKIGNALRTIDTWYPDEDGLGPIAVEPYGSVTSQGKAYRQPKQKLDFYTLLDNWVLRDEAPAVEQQHYVIANLIRGGVFGEAEEK	–	6

Source: paper PMC7797054, “Structural basis for inhibition of the type I-F CRISPR–Cas surveillance complex by AcrIF4, AcrIF7 and AcrIF14” (Nucleic Acids Research, 2020)
